From US20260193293A1, “PEPTIDES CAPABLE OF INHIBITING PROTEIN-PROTEIN INTERACTIONS AT GABAB1A SUBUNIT AND USES THEREOF” (UNIVERSITY OF COPENHAGEN, priority 2022, published 2026)

Target: Sushi domains (SD1/2) protein of the GABAB1a (GB1a) subunit, recombinant
Assay: FP competition

Chain of Sushi domains (SD1/2) protein of the GABAB1a (GB1a) subunit, recombinant (Q9Z0U4 29-158): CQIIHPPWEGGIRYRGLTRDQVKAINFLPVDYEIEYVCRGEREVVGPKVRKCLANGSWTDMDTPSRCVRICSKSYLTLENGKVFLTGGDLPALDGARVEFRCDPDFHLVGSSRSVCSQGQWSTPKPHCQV

Row | Ki [nM] | Binder
1 | 247 | Ac-DAEEDDSDVWWGGADTDYAD-NH2
2 | 6100 | Ac-DVWWGGADTDYAD-NH2
3 | 534 | Ac-EEDDSDVWWGGAD-NH2
4 | 2950 | Ac-SDVWWGGADTDYAD-NH2
5 | 1790 | Ac-EEDDSDVWW-NH2
6 | 500 | Ac-ADAEEDDSDVWWGGADTDYAD-NH2
7 | 60800 | Ac-VWWGGADTDYAD-NH2
8 | 356 | Ac-EEDDSDVWWGGADTDYADGGED-NH2
9 | 32 | Ac-TTETEFIAWGPTGDED-NH2
10 | 517 | Ac-DDSDVWWGGADTDYAD-NH2
11 | 30 | Ac-PTTETEFIAWGPTGDED-NH2
12 | 301 | Ac-EEDDSDVWWGGADTDY-NH2
13 | 12800 | Ac-EEDDSDVWWG-NH2
14 | 351 | Ac-EEDDSDVWWGGADTDYADGGE-NH2
15 | 392 | Ac-EEDDSDVWWGGADTDYADGGEDK-NH2
16 | 341 | Ac-EEDDSDVWWGGADTD-NH2
17 | 281 | Ac-EDDSDVWWGGADTDYAD-NH2
18 | 513 | Ac-DSADAEEDDSDVWWGGADTDYAD-NH2
19 | 585 | Ac-EEDDSDVWWGGADT-NH2
20 | 1020 | Ac-EEDDSDVWWGGA-NH2
21 | 36 | Ac-TETEFIAWGPTGDEDA-NH2
22 | 284 | Ac-SADAEEDDSDVWWGGADTDYAD-NH2
23 | 1750 | Ac-EEDDSDVWWGG-NH2
24 | 343 | Ac-EEDDSDVWWGGADTDYADG-NH2
25 | 341 | Ac-EEDDSDVWWGGADTDYADGG-NH2
26 | 299 | Ac-EEDDSDVWWGGADTDYA-NH2
27 | 1500 | Ac-DSDVWWGGADTDYAD-NH2
